T1: NHERF3_4, Q5T2W1
T1 sequence (Q5T2W1 373-468, limits assumed, looked up): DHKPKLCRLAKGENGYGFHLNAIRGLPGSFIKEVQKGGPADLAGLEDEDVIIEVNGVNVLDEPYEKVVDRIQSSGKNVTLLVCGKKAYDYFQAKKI

T2: NHERF3_3, Q5T2W1
T2 sequence (Q5T2W1 238-333, limits assumed, looked up): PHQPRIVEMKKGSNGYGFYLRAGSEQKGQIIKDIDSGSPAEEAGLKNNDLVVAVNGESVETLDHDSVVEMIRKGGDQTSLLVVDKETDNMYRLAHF

T3: LRRC7, Q96NW7
T3 sequence (Q96NW7 1440-1537, limits assumed, looked up): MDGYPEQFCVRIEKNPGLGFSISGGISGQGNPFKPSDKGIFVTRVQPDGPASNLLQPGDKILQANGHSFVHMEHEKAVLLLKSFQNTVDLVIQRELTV

T4: TJP3_3, O95049
T4 sequence (O95049 375-456, limits assumed, looked up): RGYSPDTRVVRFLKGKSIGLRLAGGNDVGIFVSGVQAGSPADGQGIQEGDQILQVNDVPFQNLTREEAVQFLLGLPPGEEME

T5: HTRA3, P83110
T5 sequence (P83110 354-453, limits assumed, looked up): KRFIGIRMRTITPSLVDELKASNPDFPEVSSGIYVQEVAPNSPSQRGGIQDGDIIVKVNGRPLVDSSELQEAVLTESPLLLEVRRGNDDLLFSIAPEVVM

T6: APBA2_2, Q99767
T6 sequence (Q99767 654-744, limits assumed, looked up): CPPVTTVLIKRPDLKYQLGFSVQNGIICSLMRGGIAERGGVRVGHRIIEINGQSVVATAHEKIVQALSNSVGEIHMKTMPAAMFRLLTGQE

T7: FRMPD1, Q5SYB0
T7 sequence (Q5SYB0 52-145, limits assumed, looked up): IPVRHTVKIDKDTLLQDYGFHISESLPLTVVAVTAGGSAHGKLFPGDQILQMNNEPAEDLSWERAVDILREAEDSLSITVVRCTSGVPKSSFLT

T8: LNX2_3, Q8N448
T8 sequence (Q8N448 463-564, limits assumed, looked up): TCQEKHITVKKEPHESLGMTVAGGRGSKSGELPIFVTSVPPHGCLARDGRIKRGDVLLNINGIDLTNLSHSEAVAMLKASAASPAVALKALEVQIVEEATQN

T9: PDZD7_3, Q9H5P4
T9 sequence (Q9H5P4 857-944, limits assumed, looked up): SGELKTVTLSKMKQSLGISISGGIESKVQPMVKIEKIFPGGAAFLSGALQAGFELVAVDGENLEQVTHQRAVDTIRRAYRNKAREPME

T10: GRIP1_3, Q9Y3R0
T10 sequence (Q9Y3R0 247-346, limits assumed, looked up): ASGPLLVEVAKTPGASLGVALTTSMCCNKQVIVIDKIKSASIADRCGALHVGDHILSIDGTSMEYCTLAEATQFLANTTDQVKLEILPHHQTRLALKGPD

T11: ARHGAP21, Q5T5U3
T11 sequence (Q5T5U3 45-169, limits assumed, looked up): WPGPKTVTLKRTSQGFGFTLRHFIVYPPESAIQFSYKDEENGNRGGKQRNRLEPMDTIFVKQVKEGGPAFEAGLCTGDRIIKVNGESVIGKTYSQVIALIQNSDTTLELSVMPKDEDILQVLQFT

T12: APBA2_1, Q99767
T12 sequence (Q99767 563-664, limits assumed, looked up): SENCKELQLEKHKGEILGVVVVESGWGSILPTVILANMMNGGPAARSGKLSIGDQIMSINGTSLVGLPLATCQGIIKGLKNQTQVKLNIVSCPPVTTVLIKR

T13: PDZD2_2, O15018
T13 sequence (O15018 329-429, limits assumed, looked up): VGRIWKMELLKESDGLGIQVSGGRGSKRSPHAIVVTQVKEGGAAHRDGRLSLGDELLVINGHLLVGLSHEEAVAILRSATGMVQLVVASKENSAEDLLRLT

B1: GJC1, P36383 (peptide)
chain: SGDGKTSVWI
B2: SLC2A3, P11169 (peptide)
chain: EPAKETTTNV
B3: KIT, P10721 (peptide)
chain: SQPLLVHDDV

These binders were tested against T1, NHERF3_4, Q5T2W1 (assay: holdup assay). Details: plain residues with an end cap or a label only (N-terminal biotin on a linker: ado-ado).
Set-up: key: below the threshold = too weak to quantify, mostly under pKd 3.1 to 4

| pKd | Binder |
| --- | --- |
| 3.52 | B1 |
| below the threshold | B2 |
| below the threshold | B3 |

What follows are binders tested against FRMPD3, Q5JV73 (assay: holdup assay). Details: plain residues with an end cap or a label only (N-terminal biotin on a linker: ado-ado).
Sequence of FRMPD3, Q5JV73 (Q5JV73 12-100): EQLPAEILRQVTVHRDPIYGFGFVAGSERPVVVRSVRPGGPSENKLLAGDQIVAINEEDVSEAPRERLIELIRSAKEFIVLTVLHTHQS
Set-up: key: below the threshold = too weak to quantify, mostly under pKd 3.1 to 4

| pKd | Binder |
| --- | --- |
| below the threshold | B1 |
| below the threshold | B2 |
| below the threshold | B3 |

The binders below were run against T2, NHERF3_3, Q5T2W1 (assay: holdup assay). Details: plain residues with an end cap or a label only (N-terminal biotin on a linker: ado-ado).
Set-up: key: below the threshold = too weak to quantify, mostly under pKd 3.1 to 4

| pKd | Binder |
| --- | --- |
| below the threshold | B1 |
| below the threshold | B2 |
| below the threshold | B3 |

What follows are binders tested against Inadl_9, Q8NI35 (assay: holdup assay). Details: plain residues with an end cap or a label only (N-terminal biotin on a linker: ado-ado).
Sequence of Inadl_9, Q8NI35 (Q8NI35 1530-1615): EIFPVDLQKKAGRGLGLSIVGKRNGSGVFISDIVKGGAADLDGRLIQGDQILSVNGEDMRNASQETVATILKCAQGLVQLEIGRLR
Set-up: key: below the threshold = too weak to quantify, mostly under pKd 3.1 to 4

| pKd | Binder |
| --- | --- |
| 3.85 | B1 |
| below the threshold | B2 |
| below the threshold | B3 |

What follows are binders tested against T3, LRRC7, Q96NW7 (assay: holdup assay). Details: plain residues with an end cap or a label only (N-terminal biotin on a linker: ado-ado).
Set-up: key: below the threshold = too weak to quantify, mostly under pKd 3.1 to 4

| pKd | Binder |
| --- | --- |
| 3.49 | B1 |
| below the threshold | B2 |
| below the threshold | B3 |

These binders were tested against MAST1, Q9Y2H9 (assay: holdup assay). Details: plain residues with an end cap or a label only (N-terminal biotin on a linker: ado-ado).
Sequence of MAST1, Q9Y2H9 (Q9Y2H9 962-1065): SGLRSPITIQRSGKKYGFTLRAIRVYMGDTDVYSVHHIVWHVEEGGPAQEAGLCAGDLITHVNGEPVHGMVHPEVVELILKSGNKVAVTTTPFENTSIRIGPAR
Set-up: key: below the threshold = too weak to quantify, mostly under pKd 3.1 to 4

| pKd | Binder |
| --- | --- |
| below the threshold | B1 |
| 4.46 | B2 |
| below the threshold | B3 |

What follows are binders tested against TJP1_3, Q07157 (assay: holdup assay). Details: plain residues with an end cap or a label only (N-terminal biotin on a linker: ado-ado).
Sequence of TJP1_3, Q07157 (Q07157 416-512): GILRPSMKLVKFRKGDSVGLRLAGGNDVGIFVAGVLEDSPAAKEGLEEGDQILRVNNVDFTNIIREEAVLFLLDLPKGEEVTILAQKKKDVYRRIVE
Set-up: key: below the threshold = too weak to quantify, mostly under pKd 3.1 to 4

| pKd | Binder |
| --- | --- |
| 4.11 | B1 |
| below the threshold | B2 |
| below the threshold | B3 |

What follows are binders tested against T4, TJP3_3, O95049 (assay: holdup assay). Details: plain residues with an end cap or a label only (N-terminal biotin on a linker: ado-ado).
Set-up: key: below the threshold = too weak to quantify, mostly under pKd 3.1 to 4

| pKd | Binder |
| --- | --- |
| 4.44 | B1 |
| below the threshold | B2 |
| below the threshold | B3 |

These binders were tested against GOPC, Q9HD26 (assay: holdup assay). Details: plain residues with an end cap or a label only (N-terminal biotin on a linker: ado-ado).
Set-up: key: below the threshold = too weak to quantify, mostly under pKd 3.1 to 4

| pKd | Binder |
| --- | --- |
| below the threshold | B1 |
| 3.73 | B2 |
| below the threshold | B3 |

Each binder was assayed against T5, HTRA3, P83110 (assay: holdup assay). Details: plain residues with an end cap or a label only (N-terminal biotin on a linker: ado-ado).
Set-up: key: below the threshold = too weak to quantify, mostly under pKd 3.1 to 4

| pKd | Binder |
| --- | --- |
| 5.8 | B1 |
| below the threshold | B2 |
| below the threshold | B3 |

These binders were tested against T6, APBA2_2, Q99767 (assay: holdup assay). Details: plain residues with an end cap or a label only (N-terminal biotin on a linker: ado-ado).
Set-up: key: below the threshold = too weak to quantify, mostly under pKd 3.1 to 4

| pKd | Binder |
| --- | --- |
| below the threshold | B1 |
| below the threshold | B2 |
| below the threshold | B3 |

The binders below were run against T7, FRMPD1, Q5SYB0 (assay: holdup assay). Details: plain residues with an end cap or a label only (N-terminal biotin on a linker: ado-ado).
Set-up: key: below the threshold = too weak to quantify, mostly under pKd 3.1 to 4

| pKd | Binder |
| --- | --- |
| below the threshold | B1 |
| below the threshold | B2 |
| below the threshold | B3 |

These binders were tested against LNX1_1, Q8TBB1 (assay: holdup assay). Details: plain residues with an end cap or a label only (N-terminal biotin on a linker: ado-ado).
Sequence of LNX1_1, Q8TBB1 (Q8TBB1 261-371): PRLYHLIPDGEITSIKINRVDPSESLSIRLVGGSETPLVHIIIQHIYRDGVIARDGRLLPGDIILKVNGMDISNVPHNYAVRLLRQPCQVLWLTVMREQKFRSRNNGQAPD
Set-up: key: below the threshold = too weak to quantify, mostly under pKd 3.1 to 4

| pKd | Binder |
| --- | --- |
| below the threshold | B1 |
| below the threshold | B2 |
| below the threshold | B3 |

The binders below were run against T8, LNX2_3, Q8N448 (assay: holdup assay). Details: plain residues with an end cap or a label only (N-terminal biotin on a linker: ado-ado).
Set-up: key: below the threshold = too weak to quantify, mostly under pKd 3.1 to 4

| pKd | Binder |
| --- | --- |
| below the threshold | B1 |
| below the threshold | B2 |
| below the threshold | B3 |

These binders were tested against Inadl_5, Q8NI35 (assay: holdup assay). Details: plain residues with an end cap or a label only (N-terminal biotin on a linker: ado-ado).
Sequence of Inadl_5, Q8NI35 (Q8NI35 673-780): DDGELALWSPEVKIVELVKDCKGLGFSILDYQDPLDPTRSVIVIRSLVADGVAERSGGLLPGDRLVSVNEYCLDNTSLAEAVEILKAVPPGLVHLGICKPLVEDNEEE
Set-up: key: below the threshold = too weak to quantify, mostly under pKd 3.1 to 4

| pKd | Binder |
| --- | --- |
| 3.55 | B1 |
| below the threshold | B2 |
| below the threshold | B3 |

What follows are binders tested against IL16_3, Q14005 (assay: holdup assay). Details: plain residues with an end cap or a label only (N-terminal biotin on a linker: ado-ado).
Sequence of IL16_3, Q14005 (Q14005 1107-1207): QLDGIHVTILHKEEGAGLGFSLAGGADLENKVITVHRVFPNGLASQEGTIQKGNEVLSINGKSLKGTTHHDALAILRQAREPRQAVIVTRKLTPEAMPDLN
Set-up: key: below the threshold = too weak to quantify, mostly under pKd 3.1 to 4

| pKd | Binder |
| --- | --- |
| below the threshold | B1 |
| below the threshold | B2 |
| below the threshold | B3 |

These binders were tested against GRIP2_7, Q9C0E4 (assay: holdup assay). Details: plain residues with an end cap or a label only (N-terminal biotin on a linker: ado-ado).
Sequence of GRIP2_7, Q9C0E4 (Q9C0E4 934-1023): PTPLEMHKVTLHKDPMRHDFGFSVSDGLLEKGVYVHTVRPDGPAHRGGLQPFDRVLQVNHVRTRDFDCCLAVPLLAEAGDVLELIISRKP
Set-up: key: below the threshold = too weak to quantify, mostly under pKd 3.1 to 4

| pKd | Binder |
| --- | --- |
| 4.37 | B1 |
| below the threshold | B2 |
| below the threshold | B3 |

Each binder was assayed against T9, PDZD7_3, Q9H5P4 (assay: holdup assay). Details: plain residues with an end cap or a label only (N-terminal biotin on a linker: ado-ado).
Set-up: key: below the threshold = too weak to quantify, mostly under pKd 3.1 to 4

| pKd | Binder |
| --- | --- |
| below the threshold | B1 |
| 4.3 | B2 |
| below the threshold | B3 |

The binders below were run against T10, GRIP1_3, Q9Y3R0 (assay: holdup assay). Details: plain residues with an end cap or a label only (N-terminal biotin on a linker: ado-ado).
Set-up: key: below the threshold = too weak to quantify, mostly under pKd 3.1 to 4

| pKd | Binder |
| --- | --- |
| below the threshold | B1 |
| below the threshold | B2 |
| below the threshold | B3 |

The binders below were run against T11, ARHGAP21, Q5T5U3 (assay: holdup assay). Details: plain residues with an end cap or a label only (N-terminal biotin on a linker: ado-ado).
Set-up: key: below the threshold = too weak to quantify, mostly under pKd 3.1 to 4

| pKd | Binder |
| --- | --- |
| 3.58 | B1 |
| 4.06 | B2 |
| below the threshold | B3 |

What follows are binders tested against DLG2_3, Q15700 (assay: holdup assay). Details: plain residues with an end cap or a label only (N-terminal biotin on a linker: ado-ado).
Set-up: key: below the threshold = too weak to quantify, mostly under pKd 3.1 to 4

| pKd | Binder |
| --- | --- |
| 3.83 | B1 |
| below the threshold | B2 |
| below the threshold | B3 |

What follows are binders tested against T12, APBA2_1, Q99767 (assay: holdup assay). Details: plain residues with an end cap or a label only (N-terminal biotin on a linker: ado-ado).
Set-up: key: below the threshold = too weak to quantify, mostly under pKd 3.1 to 4

| pKd | Binder |
| --- | --- |
| below the threshold | B1 |
| below the threshold | B2 |
| below the threshold | B3 |

Each binder was assayed against T13, PDZD2_2, O15018 (assay: holdup assay). Details: plain residues with an end cap or a label only (N-terminal biotin on a linker: ado-ado).
Set-up: key: below the threshold = too weak to quantify, mostly under pKd 3.1 to 4

| pKd | Binder |
| --- | --- |
| 5.57 | B1 |
| 4.97 | B2 |
| 3.99 | B3 |

Each binder was assayed against DLG1_1, Q12959 (assay: holdup assay). Details: plain residues with an end cap or a label only (N-terminal biotin on a linker: ado-ado).
Set-up: key: below the threshold = too weak to quantify, mostly under pKd 3.1 to 4

| pKd | Binder |
| --- | --- |
| below the threshold | B1 |
| 3.94 | B2 |
| below the threshold | B3 |

These binders were tested against Inadl_3, Q8NI35 (assay: holdup assay). Details: plain residues with an end cap or a label only (N-terminal biotin on a linker: ado-ado).
Sequence of Inadl_3, Q8NI35 (Q8NI35 359-469): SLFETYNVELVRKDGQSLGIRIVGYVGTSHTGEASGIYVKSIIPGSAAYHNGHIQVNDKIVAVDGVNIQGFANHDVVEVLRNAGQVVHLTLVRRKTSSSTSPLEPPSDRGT
Set-up: key: below the threshold = too weak to quantify, mostly under pKd 3.1 to 4

| pKd | Binder |
| --- | --- |
| 3.69 | B1 |
| below the threshold | B2 |
| below the threshold | B3 |
